Experimental data published in US20180237511A1 (Sanofi, published 2018).
Where a chain is given by its changes, count along the chain named.

Columns and labels:
[1] = molecular target: T1, human laminin G-like 5 domain of laminin-2 (hLG-5) (human, UniProt P24043 2936-3122, soluble biotinylated protein (Avi tag)); assay: SPR (Biacore) kinetics; mAb immobilized, hLG-5 in flow
T1 construct: The construct used for the crystal structure with C21 Fab is not described; the same entry is used; also called human LG-5; human LG5; not shown: N-terminal Avi and HPC4 tags
T1 sequence: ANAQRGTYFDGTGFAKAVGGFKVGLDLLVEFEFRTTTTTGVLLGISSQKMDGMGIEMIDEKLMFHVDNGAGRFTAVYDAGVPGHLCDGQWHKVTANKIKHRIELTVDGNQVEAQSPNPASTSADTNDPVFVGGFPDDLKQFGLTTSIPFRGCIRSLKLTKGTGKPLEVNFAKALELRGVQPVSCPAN

[2] = molecular target: T2, human beta-dystroglycan extracellular domain (soluble) (human, UniProt Q14118 654-749); assay: SPR, antibody on Protein G chip, beta-DG in flow, 1:1 model (table title says laminin-2; paragraph 445 says human beta-DG)
T2 construct: extracellular domain; The expression construct of soluble human beta-DG is not described (only the mouse one); also called hBeta-DG; hbeta-DG
T2 sequence (looked up): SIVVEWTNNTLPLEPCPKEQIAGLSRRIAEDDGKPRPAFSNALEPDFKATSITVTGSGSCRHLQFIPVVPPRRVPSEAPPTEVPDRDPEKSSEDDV
Description: (§1) Data was evaluated with a 1:1 binding model using the BIAevaluation software.
(§2) SPR was used as described above to analyze the kinetics of triAb binding to laminin-2 (Table N) or beta-DG (Table O).

[3] = molecular target: T3, murine beta-dystroglycan extracellular domain (mbeta-DG ECD), HPC4 tagged (mouse, UniProt Q62165 652-746); assay: SPR (Biacore) kinetics; mAb immobilized, mBeta-DG in flow
T3 construct: range 652-746; Made in E. coli as MBP fusion; MBP cleaved off with TEV protease; also called mbeta-DG-HPC4; murine beta-DG; not shown: C-terminal HPC4 tag
T3 sequence (looked up): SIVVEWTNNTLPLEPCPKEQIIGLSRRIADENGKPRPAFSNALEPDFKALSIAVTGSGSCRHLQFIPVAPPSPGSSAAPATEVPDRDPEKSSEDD

[4] = molecular target: T2, human beta-dystroglycan extracellular …; assay: SPR (Biacore) kinetics; mAb immobilized, hBeta-DG in flow
[5] = molecular target: T2, human beta-dystroglycan extracellular …; assay: sequential SPR (Biacore T100): antibody captured on a Protein G chip, 200 nM human LG4/5 for 60 s, then 200 nM human beta-DG for 60 s
Description: For sequential dual binding of antigens to trivalent antibodies, a Series S Sensor Protein G chip (GE Healthcare, 29179315) was used with a T100 Biacore. This chip was used to immobilize trivalent or parental antibody to the surface (60 seconds with 5 ug/mL of antibody). After capture, 200 nM of LG4/5 was flowed over the chip for 60 seconds followed by 200 nM of beta-DG for 60 seconds. Binding to the trivalent antibody was observed by the change of mass detected on the chip in relative units (RU).
Additionally, surface plasmon resonance was performed to show sequential binding of the human laminin-2 and beta-DG antigens (FIG. 1C).

[6] = molecular target: T4, human laminin G-like 4 and 5 domains of laminin-2 (hLG-4/5), soluble (human, UniProt P24043 2729-3122, biotinylated in the ELISA of Example 6); assay: SPR, antibody on Protein G chip, LG4/5 in flow, 1:1 model (table title says beta-DG; paragraph 445 says human laminin-2)
T4 construct: range 2729-3122; also called human LG-4/5; hLG4/LG5; not shown: Avi tag and HPC4 tag left after TEV cleavage of the N-terminal mIgG2a fusion partner
T4 sequence (looked up): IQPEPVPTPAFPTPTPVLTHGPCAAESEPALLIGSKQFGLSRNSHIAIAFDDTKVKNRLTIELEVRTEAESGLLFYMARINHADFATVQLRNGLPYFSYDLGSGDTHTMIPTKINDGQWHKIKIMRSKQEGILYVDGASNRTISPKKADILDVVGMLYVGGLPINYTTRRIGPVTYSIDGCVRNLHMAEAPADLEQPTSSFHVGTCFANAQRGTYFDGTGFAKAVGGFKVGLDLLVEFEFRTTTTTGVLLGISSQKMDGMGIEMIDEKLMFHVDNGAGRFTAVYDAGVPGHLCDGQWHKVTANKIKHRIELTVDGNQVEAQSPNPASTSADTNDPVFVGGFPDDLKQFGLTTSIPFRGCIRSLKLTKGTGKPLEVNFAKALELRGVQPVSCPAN
Description: as §1, §2

B1: anti-laminin-2 (anti-LG-5) monoclonal antibody clone AN01 (antibody, V domains shown)
VH: EVQLQQSGPELVKPGASVKMSCKASGYTFTSYNIHWVKQKPGQGLEWIGYINPYNDGTKYSEKFKGKATLTSDRSSSTAYMEVSSLTSEDSAVYYCAIYGNSYWGQGSTLTVSS
VL: DIVMTQAAPSIPVTPGESVSISCRSSKSLLHSNGNTYLYWFLQRPGQSPQRLIYYMSNLDSGVPDRFSGRGSGTDFTLRISRVEAEDVGVYYCMQGLEYPYTFGGGTKLEIK
notes: tested as immobilized mAb
- Kd [1]: 9.24 nM
- koff [1]: 0.000915 s⁻¹
- kon [1]: 99000 M⁻¹ s⁻¹

B2: humanized anti-beta-DG antibody AS30SS_Hu6 (antibody, V domains shown)
VH: QVQLVQSGAEVVKPGSSVKVSCEASGFTFTDSVITWVRQRPGQGLEWIGEIYPGSGNFYYNEKFQGRVTITADKSTSTAYMELSSLRSEDTAVYFCAMRRSSWGQGTLVTVSS
VL: DVVMTQTPLSLSVTPGQPASISCKSSQTIVHSNSKTYLEWYLQKPGQSPQLLIYKVSSRFSGVPDRFSGSGSGTDFTLKISRVEAEDVGVYYCFQGSHVPLTFGQGTKLEIK
notes: also called AS30_Hu6; AS30 Hu6
- Kd [2]: 0.796 nM
- koff [2]: 0.00202 s⁻¹
- kon [2]: 2.54e+06 M⁻¹ s⁻¹

B3: triAb 3429 (bispecific antibody)
light 1: EIVLTQSPDFLSVTPGEKVTLTCRASQSISNYLHWYQQKSDQSPKLLIKYASQSISGVPSRFSGSGSGTDFTLTISSVEAEDFATYFCQQSKSWPRTFGGGTKLEIKDKTHTEIVLTQSPDFLSVTPKEKVTLTCRASQSIGNNLHWYQQKSDQSPKLLIKYASQSISGIPSRFSGSGSGTDFTLTINSVEAEDAATYFCQQSKSWPRTFGGGTKLEIKDKTHTRTVAAPSVFIFPPSDEQLKSGTASVVCLLNNFYPREAKVQWKVDNALQSGNSQESVTEQDSKDSTYSLSSTLTLSKADYEKHKVYACEVTHQGLSSPVTKSFNRGEC
heavy 1: EVQLVESGGGLVKPGGSLRLSCAASGFTFSSYTMSWVRQAPGKGLEWVASISSSGSNTYYPDSVKGRFTISRDNAKNNLYLQMNSLRAEDTALYYCARFDYGSSLDSWGQGTLLTVSSDKTHTEVQLVESGGGLVQPGGSLRLSCAASGFTFSSYTMSWVRQAPGKGLEWVATISSSGDNTYYPDSVKGRFTISRDNSKNTLYLQMSSLRAEDTALYYCARFDYGSSLDSWGQGTTLTVSSDKTHTASTKGPSVFPLAPSSKSTSGGTAALGCLVKDYFPEPVTVSWNSGALTSGVHTFPAVLQSSGLYSLSSVVTVPSSSLGTQTYICNVNHKPSNTKVDKKVEPKSCDKTHTCPPCPAPELLGGPSVFLFPPKPKDTLYITREPEVTCVVVDVSHEDPEVKFNWYVDGVEVHNAKTKPREEQYNNASRVVSVLTVLHQDWLNGKEYKCKVSNKALPAPIEKTISKAKGQPREPQVYTLPPCRDELTKNQVSLWCLVKGFYPSDIAVEWESNGQPENNYKTTPPVLDSDGSFFLYSKLTVDKSRWQQGNVFSCSVMHEALHNHYTQKSLSLSPG
heavy 2: QVQLVQSGAEVVKPGSSVKVSCEASGFTFTDSVITWVRQRPGQGLEWIGEIYPGSGNFYYNEKFQGRVTITADKSTSTAYMELSSLRSEDTAVYFCAMRRSSWGQGTLVTVSSASTKGPSVFPLAPSSKSTSGGTAALGCLVKDYFPEPVTVSWNSGALTSGVHTFPAVLQSSGLYSLSSVVTVPSSSLGTQTYICNVNHKPSNTKVDKKVEPKSCDKTHTCPPCPAPELLGGPSVFLFPPKPKDTLYITREPEVTCVVVDVSHEDPEVKFNWYVDGVEVHNAKTKPREEQYNNASRVVSVLTVLHQDWLNGKEYKCKVSNKALPAPIEKTISKAKGQPREPQVCTLPPSRDELTKNQVSLSCAVKGFYPSDIAVEWESNGQPENNYKTTPPVLDSDGSFFLVSKLTVDKSRWQQGNVFSCSVMHEALHNRFTQKSLSLSPG
light 2: DVVMTQTPLSLSVTPGQPASISCKSSQTIVHSNSKTYLEWYLQKPGQSPQLLIYKVSSRFSGVPDRFSGSGSGTDFTLKISRVEAEDVGVYYCFQGSHVPLTFGQGTKLEIKRTVAAPSVFIFPPSDEQLKSGTASVVCLLNNFYPREAKVQWKVDNALQSGNSQESVTEQDSKDSTYSLSSTLTLSKADYEKHKVYACEVTHQGLSSPVTKSFNRGEC
notes: Trivalent: CODV arm VH1/VL1 C3_Hu11, VH2/VL2 C21_Hu21
- Kd [2]: 1.9 nM
- koff [2]: 0.00404 s⁻¹
- kon [2]: 2.13e+06 M⁻¹ s⁻¹

B4: anti-beta-DG antibody derived from phage display clone B04 (antibody, V domains shown)
VH: QVQLQQSGGGLVQPGGSLRLSCAASGFTFSSYAMSWVRQAPGKGLEWVSAISGSGGSTYYADSVKGRFTVSRDNSKNTLYLQMNSLRAEDTAVYYCARLGYCSSTSCYLSAFDIWGQGTMVTVSS
VL: EIVLTQSPSTLSASVGDRVTITCRASQSISSWLAWYQQKPGKAPKLLIYDASSLESGVPSRFSGSGSGTEFTLTISSLQPDDFATYYCQQYNSYPLTFGGGTKVEIK
notes: Phage display clone
- Kd [3]: 25.7 nM
- koff [3]: 0.0016 s⁻¹
- kon [3]: 62000 M⁻¹ s⁻¹
- koff [4]: 0.0016 s⁻¹
- kon [4]: 62000 M⁻¹ s⁻¹

B5: humanized anti-laminin-2 antibody C3_Hu10 (antibody, V domains shown)
VH: EVQLVESGGGLVKPGGSLRLSCAASGFTFSSYTMSWVRQAPGKGLEWVASISSSGSNTYYPDSVKGRFTISRDNAKNNLYLQMNSLRAEDTALYYCARFDYGSSLDSWGQGTLLTVSS
VL: EIVLTQSPDFLSVTPKEKVTLTCRASQSISNNLHWYQQKSDQSPKLLIKYASQSISGIPSRFSGSGSGTDFTLTINSVEAEDAATYFCQQSKSWPRTFGGGTKLEIK
notes: Called monovalent anti-LG4/5 antibody
- binding result [5]: no binding (tested: 200 nM)

B6: humanized anti-laminin-2 antibody C3_Hu11 (antibody, V domains shown)
VH: B5 VH
VL: B5 VL with S30G
notes: as for B5
- binding result [5]: no binding (tested: 200 nM)
- Kd [6]: 9.83 nM
- koff [6]: 0.00117 s⁻¹
- kon [6]: 119000 M⁻¹ s⁻¹

B7: humanized anti-laminin-2 antibody C21_Hu11 (antibody, V domains shown)
VH: B5 VH
VL: B5 VL with T22S, N32Y, T74S
notes: as for B5
- binding result [5]: no binding (tested: 200 nM)

B8: humanized anti-laminin-2 antibody C21_Hu21 (antibody, V domains shown)
VH: B5 VH with K13Q, S50T, S56D, A75S, N78T, N84S, L113T
VL: B5 VL with K16G, N32Y, I58V, N76S, A83F
notes: as for B5
- binding result [5]: no binding (tested: 200 nM)
- Kd [6]: 8.99 nM
- koff [6]: 0.00144 s⁻¹
- kon [6]: 160000 M⁻¹ s⁻¹
